Experimental data reported in paper PMC5108039, “Functional and Structural Characterization of a Novel HLA-DRB1*04:01-Restricted α-Enolase T Cell Epitope in Rheumatoid Arthritis” (Frontiers in Immunology, 2016).
Read-outs that look alike come from different tables or passages of the source. Square brackets hold non-standard residues; d marks the D form. Ends that are not written are not given here. Peptide text beside a SMILES is read from it. Cit = NC(=O)NCCC[C@H](N)C(=O)O

Tests used:
HLA-DRB1*04:04 = HLA-DRB1*04:04 (Homo sapiens, UniProt P01903+P01911, A100R/A169T/F76Y/I96L/K127E/L162R/M171V/N62H/P40V/Q125Y/R42H/S133A/S149N/S66Y/V209L/W38E); assay: Competition peptide-binding assay, HLA-DRB1*04:04
Protocol: Stepwise binding analysis of 15-mer peptides derived from both native and citrullinated α-enolase to HLA-DRB1*01, *04:01, and *04:04 was performed using the ProImmune Class II Reveal assay (ProImmune, Oxford, UK). Relevant peptides were thereafter synthesized by GenScript (Piscataway, NJ, USA) and used for competition peptide-binding assays. […] Finally, peptide-binding affinity to the three different HLA alleles was assessed in direct binding assays in which N-terminally biotinylated epitopes (GenScript, Piscataway, NJ, USA) were incubated at concentrations from 5 to 0.05 μM with plate-bound relevant HLA-DRB1 molecules in the absence of a competitor peptide ([22]). The inflection point of the binding curve of a known binding epitope was used as a cutoff to separate weakly binding epitopes from background. […]

HLA-DRB1*01:01 = HLA-DRB1*01:01 (Homo sapiens, UniProt P01903+P01911, A100R/D57E/F55L/F60I/F76Y/I96L/L162R/M171V/P40L/Q125E/R42F/V115G/Y59C); assay: Competition peptide-binding assay, HLA-DRB1*01:01
Protocol: Stepwise binding analysis of 15-mer peptides derived from both native and citrullinated α-enolase to HLA-DRB1*01, *04:01, and *04:04 was performed using the ProImmune Class II Reveal assay (ProImmune, Oxford, UK). Relevant peptides were thereafter synthesized by GenScript (Piscataway, NJ, USA) and used for competition peptide-binding assays. […] Finally, peptide-binding affinity to the three different HLA alleles was assessed in direct binding assays in which N-terminally biotinylated epitopes (GenScript, Piscataway, NJ, USA) were incubated at concentrations from 5 to 0.05 μM with plate-bound relevant HLA-DRB1 molecules in the absence of a competitor peptide ([22]). The inflection point of the binding curve of a known binding epitope was used as a cutoff to separate weakly binding epitopes from background.
We decided to make use of HLA-DRB1*01:01 as a representative model for HLA-DRB1*01.

HLA-DRB1*04:01 = HLA-DRB1*04:01 (Homo sapiens, UniProt P01903+P01911, A100K/A169T/F76Y/I96L/K127E/L162R/M171V/N62H/P40V/Q125Y/R42H/S133A/S149N/S66Y/V115G/V209L/W38E); assay: biochemical
[1] = molecular target: HLA-DRB1*01:01 (plate-bound, peptide-binding assays) (human); assay: competition peptide-binding assay on plates
[2] = molecular target: HLA-DRB1*04:01 (plate-bound, peptide-binding assays) (human); assay: competition peptide-binding assay on plates
[3] = molecular target: HLA-DRB1*04:04 (plate-bound, peptide-binding assays) (human); assay: competition peptide-binding assay on plates
[4] = competition with 0.02 μM biotinylated GAD65 270–285, plate-bound HLA-DRB1*04:04, increasing peptide concentrations, read-out: IC50 *04:04
[5] = competition with 0.02 μM biotinylated HA306–318, plate-bound HLA-DRB1*01:01, increasing peptide concentrations, read-out: IC50 *01:01

IC50 [1] [nM]	IC50 [2] [nM]	IC50 [3] [nM]	Molecule	IC50 (HLA-DRB1*04:04; [4]) [nM]	IC50 (HLA-DRB1*01:01; [5]) [nM]	further results
			CC[C@H](C)[C@H](N)C(=O)N[C@@H](Cc1ccccc1)C(=O)N[C@@H](CC(=O)O)C(=O)N[C@@H](CO)C(=O)N[C@@H](CCCNC(N)=O)C(=O)NCC(=O)N[C@@H](CC(N)=O)C(=O)N1CCC[C@H]1C(=O)N[C@H](C(=O)N[C@H](C(=O)N[C@@H](CCC(=O)O)C(=O)N[C@@H](CC(=O)O)C(=O)N[C@H](C(=O)N[C@@H](CC(C)C)C(=O)N[C@@H](Cc1ccccc1)C(=O)O)C(C)C)C(C)C)[C@@H](C)O [cit11] (H-IFDS[Cit]GNPTVEDVLF-OH)			IC50 (HLA-DRB1*04:04): 1700 nM; IC50 (HLA-DRB1*01:01): 25000 nM
			CC(C)C[C@H](NC(=O)CNC(=O)[C@H](CCCCN)NC(=O)[C@H](CO)NC(=O)[C@@H](N)[C@@H](C)O)C(=O)N[C@@H](Cc1ccccc1)C(=O)N[C@@H](CCCNC(N)=O)C(=O)N[C@@H](C)C(=O)N[C@@H](C)C(=O)N[C@H](C(=O)N1CCC[C@H]1C(=O)N[C@@H](CO)C(=O)NCC(=O)N[C@@H](C)C(=O)N[C@@H](CO)C(=O)O)C(C)C [cit26] (H-TSKGLF[Cit]AAVPSGAS-OH)	500	1900	IC50 (HLA-DRB1*04:01): 1500 nM
			CC[C@H](C)[C@H](NC(=O)[C@@H](N)C(C)C)C(=O)NCC(=O)N[C@@H](CCSC)C(=O)N[C@@H](CC(=O)O)C(=O)N[C@H](C(=O)N[C@@H](C)C(=O)N[C@@H](C)C(=O)N[C@@H](CO)C(=O)N[C@@H](CCC(=O)O)C(=O)N[C@@H](Cc1ccccc1)C(=O)N[C@@H](Cc1ccccc1)C(=O)N[C@@H](CCCNC(N)=O)C(=O)N[C@@H](CO)C(=O)NCC(=O)O)C(C)C [cit241] (H-VIGMDVAASEFF[Cit]SG-OH)	200	42000	IC50 (HLA-DRB1*04:01): 2500 nM
			CC[C@H](C)[C@H](NC(=O)[C@H](CCCNC(N)=O)NC(=O)[C@@H](N)CCCCN)C(=O)N[C@@H](C)C(=O)N[C@@H](CCCCN)C(=O)N[C@@H](C)C(=O)N[C@H](C(=O)N[C@@H](CC(N)=O)C(=O)N[C@@H](CCC(=O)O)C(=O)N[C@@H](CCCCN)C(=O)N[C@@H](CO)C(=O)N[C@@H](CS)C(=O)N[C@@H](CC(N)=O)C(=O)N[C@@H](CS)C(=O)N[C@@H](CC(C)C)C(=O)O)C(C)C [cit326] (H-K[Cit]IAKAVNEKSCNCL-OH)	700	> 50000	
			CC[C@H](C)[C@H](NC(=O)[C@H](Cc1c[nH]cn1)NC(=O)[C@H](CCC(=O)O)NC(=O)[C@@H](NC(=O)[C@H](C)NC(=O)[C@H](CCCCN)NC(=O)[C@H](CO)NC(=O)[C@@H](NC(=O)CNC(=O)[C@H](CCCCN)NC(=O)CNC(=O)[C@H](CCSC)NC(=O)[C@H](Cc1ccc(O)cc1)NC(=O)[C@@H](N)CCCNC(=N)N)C(C)C)C(C)C)C(=O)N[C@@H](CC(N)=O)C(=O)O [compound 56] (H-RYMGKGVSKAVEHIN-OH; N-terminus and C-terminus assumed)	> 50000	> 50000	
			CC[C@H](C)[C@H](NC(=O)[C@H](CCCNC(=N)N)NC(=O)[C@H](CCSC)NC(=O)[C@H](C)NC(=O)[C@H](CCC(=O)O)NC(=O)[C@H](CCCNC(=N)N)NC(=O)[C@H](Cc1ccccc1)NC(=O)[C@H](CC(N)=O)NC(=O)[C@H](C)NC(=O)[C@H](C)NC(=O)CNC(=O)[C@@H](NC(=O)[C@@H]1CCCN1C(=O)[C@@H](N)CC(C)C)C(C)C)C(=O)NCC(=O)O [compound 171] (H-LPVGAANFREAMRIG-OH; N-terminus and C-terminus assumed)	> 50000	> 50000	
			CC[C@H](C)[C@H](NC(=O)[C@@H](N)C(C)C)C(=O)NCC(=O)N[C@@H](CCSC)C(=O)N[C@@H](CC(=O)O)C(=O)N[C@H](C(=O)N[C@@H](C)C(=O)N[C@@H](C)C(=O)N[C@@H](CO)C(=O)N[C@@H](CCC(=O)O)C(=O)N[C@@H](Cc1ccccc1)C(=O)N[C@@H](Cc1ccccc1)C(=O)N[C@@H](CCCNC(=N)N)C(=O)N[C@@H](CO)C(=O)NCC(=O)O)C(C)C [compound 241] (H-VIGMDVAASEFFRSG-OH)	500	35000	IC50 (HLA-DRB1*04:01): 2000 nM
			CC[C@H](C)[C@H](N)C(=O)N[C@@H](Cc1ccccc1)C(=O)N[C@@H](CC(=O)O)C(=O)N[C@@H](CO)C(=O)N[C@@H](CCCNC(=N)N)C(=O)NCC(=O)N[C@@H](CC(N)=O)C(=O)N1CCC[C@H]1C(=O)N[C@H](C(=O)N[C@H](C(=O)N[C@@H](CCC(=O)O)C(=O)N[C@@H](CC(=O)O)C(=O)N[C@H](C(=O)N[C@@H](CC(C)C)C(=O)N[C@@H](Cc1ccccc1)C(=O)O)C(C)C)C(C)C)[C@@H](C)O [peptide 11] (H-IFDSRGNPTVEDVLF-OH; N-terminus and C-terminus assumed)	> 50000	> 50000	
			CC[C@H](C)[C@H](NC(=O)[C@H](CCCNC(=N)N)NC(=O)[C@@H](N)CCCCN)C(=O)N[C@@H](C)C(=O)N[C@@H](CCCCN)C(=O)N[C@@H](C)C(=O)N[C@H](C(=O)N[C@@H](CC(N)=O)C(=O)N[C@@H](CCC(=O)O)C(=O)N[C@@H](CCCCN)C(=O)N[C@@H](CO)C(=O)N[C@@H](CS)C(=O)N[C@@H](CC(N)=O)C(=O)N[C@@H](CS)C(=O)N[C@@H](CC(C)C)C(=O)O)C(C)C [peptide 326] (H-KRIAKAVNEKSCNCL-OH)	700	> 50000	
25000	2200	1700	α-enolase peptide Cit11 (residues 11–25), citrullinated			
> 50000		> 50000	MSILKIHA[Cit]EIFDS[Cit] [α-enolase peptide Cit1 (residues 1–15), citrullinated]			
1900	1500	500	TSKGLF[Cit]AAVPSGAS [α-enolase peptide Cit26 (residues 26–40), citrullinated]			
35000	2000	500	VIGMDVAASEFFRSG [α-enolase peptide 241 (residues 241–255), native]			
> 50000	1900	700	K[Cit]IAKAVNEKSCNCL (cysteine pairing not given here) [α-enolase peptide Cit326 (residues 326–340), citrullinated]			
1400	4000	500	TSKGLFRAAVPSGAS [α-enolase peptide 26 (residues 26–40), native]			
> 50000	> 50000	25000	KAKFAGRNFRNPLAK [α-enolase peptide 420 (residues 420–434), native]			
		> 50000	LPVGAANF[Cit]EAM[Cit]IG [α-enolase peptide Cit171 (residues 171–185), citrullinated]			
> 50000	> 50000	28000	KAKFAG[Cit]NF[Cit]NPLAK [α-enolase peptide Cit420 (residues 420–434), citrullinated]			
> 50000	1700	700	KRIAKAVNEKSCNCL [α-enolase peptide 326 (residues 326–340), native]			
42000	2500	200	VIGMDVAASEFF[Cit]SG [α-enolase peptide Cit241 (residues 241–255), citrullinated]			
3500		> 50000	MSILKIHAREIFDSR [α-enolase peptide 1 (residues 1–15), native]			
